The series has as its target VDAC from Yeast (voltage dependent anion selective channel), purified (UniProt P04840).

Consider “bovine cytochrome c oxidase holoenzyme (crystal grade)”, for which the KM (µM) at VDAC 50 nM is 28 µM, the KM (µM) at VDAC 100 nM is 44 µM, the KM (µM) at VDAC 200 nM worked out at 59 µM and the VMAX (µM/min) at VDAC 50 nM was determined as 132 µM/min. The substance also returned a VMAX (µM/min) at VDAC 100 nM of 199 µM/min, a VMAX (µM/min) at VDAC 200 nM of 224 µM/min, a VMAX/KM (1/min) at VDAC 50 nM of 4.7 min⁻¹ and a VMAX/KM (1/min) at VDAC 100 nM of 4.5 min⁻¹. Also, the VMAX/KM (1/min) at VDAC 200 nM was 3.8 min⁻¹.
